Reference: the supplement of paper PMC12764529
± gives the half width of the 95% confidence interval.

Legend:
[1] = folding stability dG unfold from trypsin proteolysis; higher = more stable
Description: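 Folding stability of de novo designed mini-proteins (<80 aa, no Cys; designed by TrROS, TrMRF, ProteinMPNN and the joint model) was measured by cDNA display proteolysis with trypsin and chymotrypsin. Each protease was used at 11 concentrations in a threefold dilution series plus a no-protease condition. K50 was inferred by Bayesian fitting of sequencing counts, and dG unfold was derived against a sequence-predicted unfolded-state K50 (Tsuboyama et al. method). Sequences shown include variable-length N-terminal GS-type padding (SAGGSAGG...) inside a display construct carrying a PA tag. Rows were kept only if the AF2 dimer inter-PAE was >15, to exclude likely homo-oligomers.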

[2] = folding stability dG unfold from chymotrypsin proteolysis; higher = more stable
Outline: (§1)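 Digests were run with trypsin and chymotrypsin at 11 concentrations in threefold dilutions, plus a no-protease condition, on designed mini-proteins in a PA-tagged cDNA display construct. The mini-proteins were under 80 residues, had no cysteine, and were kept only when AlphaFold2 dimer inter-PAE was above 15. After sequencing, Bayesian fitting of the counts gave K50, from which unfolding free energy was derived against a sequence-predicted unfolded-state K50 and a shared folded-state K50, per protease or combined.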

[3] = folding stability dG unfold (combined trypsin and chymotrypsin); higher = more stable
Outline: as §1

Sequence	folding stability dG unfold [1] [kcal/mol]	folding stability dG unfold [2] [kcal/mol]	folding stability dG unfold [3] [kcal/mol]
SAGGMLTPEEIERLARELEEAIRRGDRERAEELLEKLEELLKQAEEEGDEELVERLKKLLERAKKALESAGG [r13_137_TrROS_Hall]	4.85 ± 0.55	2.99 ± 0.19	–
SAGGSMKTYKLESEEEIEKLIKELSPEKYIVGVKGNPDGTPVVYIFPKSEPEKLKKLGVKEIIPVKSAGGSA [r2_351_JUSTAS]	-0.442 ± 0.46	-0.109 ± 0.57	–
MPTIRVKIYRDGKLVRELELPAEEVEKMSEEELLEKVRELLEEEKGETYKVEVEIDGKKFTFEIKLPEKEES [r1_477_TrROS_Hall]	4.33 ± 0.39	4.8 ± 0.24	–
SAGGSAGGSAGGSFSVSVSYDPSTGNIVIRIDLPDGSTITITINPATGEISVSSSSSSSSAGGSAGGSAGGS [r10_127_TrMRF]	4.13 ± 0.28	3.83 ± 0.25	–
SAGGSAGGSAGEIDKIKVEVEFEFPVRVKVGDKEYEFLVKVKYTIGPDGKIEVKSIELFPSAGGSAGGSAGG [r11_95_TrMRF]	3.69 ± 0.24	4.76 ± 0.38	–
SDTVHIPIDPNDPDEIKDLIKNLPPGWTVHIWWPDKNGEWPVVTIKVKPPPPPPIPPEDLPEEQRKEMKKSA [r9_1103_TrROS]	0.398 ± 0.24	0.718 ± 0.11	–
SAAVSFTPDGRPRRLEPVPPVPPVIEIPVPLNIPESDPAKKEALRKEIKEKIMKELGLPESVPVKVILLSAG [r14_453_JUSTAS]	0.199 ± 0.15	–	-0.158 ± 0.55
SAGKEIKIRIEVTRKVKNPETGEEVEEKEVVEITLSEEELKKGKSLEELAKELASKYPGAKVKIVEIESAGG [r19_110_TrROS_Hall]	4.43 ± 0.48	3.08 ± 0.49	–
SAGGTPIGDGQTGESSTFDEEVTDPVTGEKVKVKVTIPVTIDPETGKTVRTVTITNPLEGKTTTTLTLSAGG [r13_262_JUSTAS]	-0.379 ± 0.13	–	< -1
SAGGSAGGIRIHRDNDKYVIHVPMDPNQPPENIKDILRDLPGLEDPEEIEYVPNPNGQAMIKIPSAGGSAGG [r6_516_TrROS]	-0.0828 ± 0.18	–	< -1
SAGGSAGGGMVTVEIPLEVTLTTSLTPEPGTAQTVTLPVVVTIEFPPGNPEKLKKEVEKIKKKSSAGGSAGG [r6_280_JUSTAS]	-0.456 ± 0.2	–	< -1
SIEELAKKFPNVTVTVEKTEDGEVKITITVKTSEEQKKELQEKLKELAKKLAEELDLKVEIEIKVLPAPPSA [r9_1099_TrROS_Hall]	3.86 ± 0.26	3.7 ± 0.38	–
SAGGSAGGSAGGETVVEEDPAAGTTVVTYHEPLPTPSTRENVTTLTHDPSSSAATTTESSAGGSAGGSAGGS [r10_1041_JUSTAS]	-1.14 ± 0.27	–	< -1
SAGMEAEAERIAEELERELPPTYRITSITVTPQPDNTWVAPITIEKVDAEGRVLGPSTVTVTLPPGLGSAGG [r19_28_JUSTAS]	0.494 ± 0.044	–	-0.452 ± 0.14
SAGGSAGGSAGGMPVVVINTPSEEEAEKEKAKLEEDPEYKDGPINFIYIPPGTLPENVPLSAGGSAGGSAGG [r7_976_JUSTAS]	0.286 ± 0.072	–	< -1
SAGGSAGGSAGGSMIVDTKVPENSVAYTPDGKKIGPEEVKKALEEGLGYIGSTPVPPGLSAGGSAGGSAGGS [r4_47_JUSTAS]	0.127 ± 0.029	–	-0.835 ± 0.31
SAGGSAGGDPSRLPVITPETFNVPVPAPGGVNETVTVTVIKLPGGETIVTTTYPDGKTTTELIPSAGGSAGG [r6_111_JUSTAS]	0.927 ± 0.058	–	0.182 ± 0.15
SAGGSAGGSAGMKTYTVPLPGGDPALIEQTAQDIVEKIPGLEDHEVKVDAGDDGTLTIVESAGGSAGGSAGG [r17_324_JUSTAS]	-0.736 ± 0.16	–	< -1

Sequence	folding stability dG unfold [1] [kcal/mol]	folding stability dG unfold [2] [kcal/mol]	folding stability dG unfold [3] [kcal/mol]
SAGGSAGGSAGGSGNFDKDGNKLTVYYPNTKKPVTIDFPVEDIFEFIKNLPPNVAKVDASAGGSAGGSAGGS [r4_282_TrMRF]	-0.201 ± 0.049	–	-0.869 ± 0.4
SAGGSAGGMSPDVEVVTVERVITTTEPVSPSLSPEYLKAYPNATKTTTTVTVTVVPKERFEELTSAGGSAGG [r6_831_JUSTAS]	-1.44 ± 0.43	–	< -1
SAGGGMSTPVGVDSKLTEVREDTETGLITTTSVYRAGSEVTTVTESRPLGNPEDVTTLETTTTPASASAGGS [r16_89_JUSTAS]	0.0405 ± 0.041	–	-0.204 ± 0.15
SAGGGNMKTITVPASAVTSITRSPTNPNTLTITVSGSGATTTTTLPITPETKITEEGDTVTVTIPGLSAGGS [r16_22_JUSTAS]	0.312 ± 0.037	–	-0.263 ± 0.096
SAGGSAGGDGHPDILNAVFTRTETFYREGDDEPGGEGTREILVVVTGDNPENPELALKEAEEAASAGGSAGG [r6_928_TrMRF]	0.601 ± 0.055	–	0.0849 ± 0.18
SAGGWIPIDEIKDLLDNGKPMPLEQIVKEIQKDFGYPVTIEEDDDSFWIHVENPNTGEPREEIEIDPSAGGS [r8_105_TrROS]	0.354 ± 0.11	–	-0.392 ± 0.38
SAGGSAGGSAGGSNIILIPAKPGEEFKIKINGRPLKIQRDKDKPGYIMIEFPDGQWQPISAGGSAGGSAGGS [r4_488_TrROS]	-0.041 ± 0.2	–	-0.174 ± 0.24
KVFSVDELRELAKKGKLKELLKKNKDVTIVVEEGSPEELKELKALPEVKEIKVVPKEDEEKIKKAKLVIKVS [r1_248_TrROS_Hall]	0.312 ± 0.17	0.0786 ± 0.69	–
SAGMTVEVEIELPPGMTEEERLEEVKALVEELARALLPPGWKVTVKEIEVEEKDGKLVVKVKIEIEPEESAG [r5_146_TrROS_Hall]	3.96 ± 0.28	2.99 ± 0.22	–
SAGGSAGGSWPFRIEIYNPENGKEEVKDIPGDLDELKDLIPPGYRVKIEFGDEEITIPIDDIKSAGGSAGGS [r20_36_TrROS]	-0.331 ± 0.16	–	-0.587 ± 0.27
SAGGSAGGSAGGSALDRPVPVLVTGSIPLDGKFEDALGAAKAIEEEFAPYGYIVLSDVHVSAGGSAGGSAGG [r17_197_TrMRF]	0.297 ± 0.048	–	-0.0552 ± 0.12
SAGGSAGGSAGGWVFDSDDYPKFQDAAKDHGLKPKSINDDDNTMTVDPEDPNRIRDAINESAGGSAGGSAGG [r7_285_TrROS]	-0.147 ± 0.21	–	< -1
SAGGSAGGSAGGSPEVVPVDHPDRELLLVRFPDSVVLTDPSAPGASRTFPADTDVVVDASAGGSAGGSAGGS [r4_321_TrMRF]	-1.37 ± 0.41	–	< -1
SAGGSMPITVSVPVPPDVPLEEVAERIEKELREAGIEADVREVTRVPGEGRILLHFDAGKTGVIPASAGGSA [r2_242_JUSTAS]	-0.251 ± 0.12	–	< -1
SAGGSAGGSMLTITVKTTDPAKGGSATTVIPVPVPGSVEEARELAEEIKKKLPPEVVEITVLESAGGSAGGS [r12_871_JUSTAS]	-0.294 ± 0.19	–	< -1
SAGGSAGGSAGSKTITFIMVHPDDGYISDMEMRYTDNGIEMEMEWIPVPKEDAEELKDLISAGGSAGGSAGG [r11_47_TrROS]	0.225 ± 0.036	–	-0.044 ± 0.19
SAGGPVIKIPIEIMMPNNDLNKFANEIAKELQDDGYKVKINPIEFEPQRDPDGKPDYVHFRATVEVQPSAGG [r13_707_TrROS]	-0.228 ± 0.18	–	< -1
SAGMKELVLVERDAPVLGVYLDPETGRPRLEPRPVPVVVVVEVEPDSEAARELAEKLAPEDVRVEVLPASAG [r5_468_TrMRF]	0.164 ± 0.05	–	-0.483 ± 0.24
